Results: US20240209081A1 (GENOME, published 2024)

Experiments:
human CNTN4-10×His [1] = molecular target: T1, human CNTN4-10×His (human, UniProt Q8IWV2 19-1000); test: ELISA, plate coated with 20 nM antigen, HRP anti-human kappa detection
T1 construct: also called CNTN-4 protein
T1 sequence: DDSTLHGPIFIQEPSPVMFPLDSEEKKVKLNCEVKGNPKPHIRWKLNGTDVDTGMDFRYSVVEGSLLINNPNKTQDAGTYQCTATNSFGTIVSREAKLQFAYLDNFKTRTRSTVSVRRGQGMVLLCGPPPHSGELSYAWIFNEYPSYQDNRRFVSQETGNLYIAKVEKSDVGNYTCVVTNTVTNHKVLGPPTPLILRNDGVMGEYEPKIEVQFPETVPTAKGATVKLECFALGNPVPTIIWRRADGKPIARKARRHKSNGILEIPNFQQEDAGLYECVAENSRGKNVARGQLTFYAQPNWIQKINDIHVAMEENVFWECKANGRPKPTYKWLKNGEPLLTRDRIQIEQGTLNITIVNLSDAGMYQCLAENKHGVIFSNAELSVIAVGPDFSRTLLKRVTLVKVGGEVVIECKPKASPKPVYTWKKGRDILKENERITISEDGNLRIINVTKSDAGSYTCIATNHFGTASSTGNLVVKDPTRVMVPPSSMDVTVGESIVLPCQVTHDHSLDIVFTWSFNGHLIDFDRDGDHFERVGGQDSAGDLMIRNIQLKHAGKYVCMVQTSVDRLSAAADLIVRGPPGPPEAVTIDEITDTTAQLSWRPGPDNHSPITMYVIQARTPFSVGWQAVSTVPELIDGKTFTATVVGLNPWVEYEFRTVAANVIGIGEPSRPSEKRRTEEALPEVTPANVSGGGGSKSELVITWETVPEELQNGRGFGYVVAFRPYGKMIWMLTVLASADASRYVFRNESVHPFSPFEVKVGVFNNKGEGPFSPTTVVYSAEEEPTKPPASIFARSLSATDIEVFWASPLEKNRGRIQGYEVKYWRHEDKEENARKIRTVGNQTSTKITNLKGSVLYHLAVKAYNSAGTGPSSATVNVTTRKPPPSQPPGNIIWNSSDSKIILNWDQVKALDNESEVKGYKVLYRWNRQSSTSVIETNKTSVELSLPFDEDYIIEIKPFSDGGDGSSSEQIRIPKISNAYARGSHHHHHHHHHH
Description: (§1) ELISA test was performed on the monoclonal antibody hAb-1 prepared in Example 2. An ELISA plate was coated with 20 nM of antigens (human CNTN4-10×His or mouse CNTN4-10×His). For antibody binding, antibodies hAb-1 were serially diluted from a maximum of 1 μM to 0.0001 nM, thereby binding to the antigen. HRP conjugated anti-human kappa antibodies were used as a secondary antibody for antibody detection. Color was developed using ABTS, which is a color developing reagent, and the absorbance at 405 nm was measured.

mouse CNTN4-10×His = molecular target: T2, mouse CNTN4-10×His (mouse, UniProt Q69Z26 19-1000); test: as above
T2 sequence: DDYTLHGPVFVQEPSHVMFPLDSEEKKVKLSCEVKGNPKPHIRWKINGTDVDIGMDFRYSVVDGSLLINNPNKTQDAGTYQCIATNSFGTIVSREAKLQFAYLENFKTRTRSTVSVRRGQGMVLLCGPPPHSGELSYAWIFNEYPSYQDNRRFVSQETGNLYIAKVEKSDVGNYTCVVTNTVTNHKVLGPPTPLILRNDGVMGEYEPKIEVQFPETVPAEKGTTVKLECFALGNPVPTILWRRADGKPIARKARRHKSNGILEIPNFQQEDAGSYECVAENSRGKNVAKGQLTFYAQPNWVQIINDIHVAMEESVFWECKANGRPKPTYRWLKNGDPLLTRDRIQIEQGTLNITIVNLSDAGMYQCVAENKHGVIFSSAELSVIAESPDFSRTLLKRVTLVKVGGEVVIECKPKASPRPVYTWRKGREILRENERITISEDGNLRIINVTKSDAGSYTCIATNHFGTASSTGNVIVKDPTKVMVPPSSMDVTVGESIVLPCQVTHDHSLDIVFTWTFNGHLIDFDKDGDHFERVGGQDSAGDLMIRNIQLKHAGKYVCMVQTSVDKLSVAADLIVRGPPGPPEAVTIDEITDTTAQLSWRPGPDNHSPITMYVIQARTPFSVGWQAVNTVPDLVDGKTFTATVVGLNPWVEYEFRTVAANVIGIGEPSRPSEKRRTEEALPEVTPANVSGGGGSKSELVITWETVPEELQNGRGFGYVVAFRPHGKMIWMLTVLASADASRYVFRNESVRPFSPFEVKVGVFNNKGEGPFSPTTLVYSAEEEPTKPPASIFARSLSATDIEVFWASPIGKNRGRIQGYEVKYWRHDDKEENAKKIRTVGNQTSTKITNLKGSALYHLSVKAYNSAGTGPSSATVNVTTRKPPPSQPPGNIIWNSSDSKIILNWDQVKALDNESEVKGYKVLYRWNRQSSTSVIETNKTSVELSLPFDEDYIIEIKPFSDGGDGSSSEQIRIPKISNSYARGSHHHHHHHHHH
Description: as §1

human CNTN4-10×His [2] = molecular target: T1, human CNTN4-10×His; test: ELISA on coated human CNTN4-10×His, co-incubated with 0 nM CNTN4 receptor (APP); 0 nM CNTN-4 receptor (co-incubation)
Description: (§2) An ELISA plate was coated with 20 nM of antigens human CNTN4-10×His. For antibody binding, a mixture of antibodies hAb-1 diluted to a final concentration of 0 to 1,000 nM and human CNTN4 receptors (Amyloid precursor protein, APP) diluted to 0 or 500 nM was bound to the antigens. HRP conjugated anti-human kappa antibodies were used as a secondary antibody for antibody detection. Color was developed using ABTS, which is a color developing reagent, and the absorbance at 405 nm was measured.

human CNTN4-10×His [3] = molecular target: T1, human CNTN4-10×His; test: ELISA on coated human CNTN4-10×His, competitor 500 nM CNTN4 receptor (APP) co-incubated
Description: as §2

[4] = molecular target: T3, human CNTN4 recombinant protein (human, UniProt Q8IWV2 19-1000); test: SPR (CM5 chip), hAb-1 captured by anti-human IgG Fc, human CNTN4 400 nM to 0.78 nM as analyte
T3 construct: No tag is stated, so it is kept apart from human CNTN4-10×His, though it may be the same preparation; also called Human CNTN-4 protein
T3 sequence (looked up): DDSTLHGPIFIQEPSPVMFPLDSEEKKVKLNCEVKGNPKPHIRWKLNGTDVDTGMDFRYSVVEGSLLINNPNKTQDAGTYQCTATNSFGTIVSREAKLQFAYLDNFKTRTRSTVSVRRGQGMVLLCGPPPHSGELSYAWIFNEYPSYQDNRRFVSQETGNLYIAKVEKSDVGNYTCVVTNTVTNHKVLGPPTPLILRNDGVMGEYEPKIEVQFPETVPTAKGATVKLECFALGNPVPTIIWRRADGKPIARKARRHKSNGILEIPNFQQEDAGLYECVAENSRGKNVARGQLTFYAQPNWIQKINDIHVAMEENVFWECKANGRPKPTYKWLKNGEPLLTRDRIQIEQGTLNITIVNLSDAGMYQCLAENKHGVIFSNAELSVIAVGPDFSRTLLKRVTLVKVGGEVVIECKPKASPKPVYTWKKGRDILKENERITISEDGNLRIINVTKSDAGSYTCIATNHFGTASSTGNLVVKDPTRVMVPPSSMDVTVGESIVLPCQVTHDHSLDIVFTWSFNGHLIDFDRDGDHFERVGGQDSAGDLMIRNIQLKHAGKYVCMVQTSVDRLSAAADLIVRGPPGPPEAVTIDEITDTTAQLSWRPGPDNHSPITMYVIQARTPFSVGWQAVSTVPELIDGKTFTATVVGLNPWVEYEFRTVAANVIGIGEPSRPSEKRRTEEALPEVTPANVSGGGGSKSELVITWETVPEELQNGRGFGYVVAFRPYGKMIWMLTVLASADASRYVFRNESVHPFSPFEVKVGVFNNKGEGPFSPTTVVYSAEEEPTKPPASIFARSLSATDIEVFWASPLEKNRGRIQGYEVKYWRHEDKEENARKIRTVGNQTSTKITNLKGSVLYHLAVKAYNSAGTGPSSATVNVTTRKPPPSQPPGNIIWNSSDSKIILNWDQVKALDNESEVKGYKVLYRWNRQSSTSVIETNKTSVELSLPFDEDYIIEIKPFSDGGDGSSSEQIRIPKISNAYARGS
Description: SPR test was performed on the monoclonal antibody hAb-1 prepared in Example 2. More specifically, in order to bind anti-human IgG Fc (capture antibody) using amine coupling, CM5 chip was mounted, running buffer was allowed to flow, the chip was activated, and then capture antibody was attached thereto. […] to which capture antibody was not attached was deactivated using ethanolamine, and then regeneration was performed using 3M magnesium chloride to clear analytes except capture antibody. The hAb-1 prepared at a concentration of 0.05 μg/mL was allowed to flow for 30 seconds at a rate of 10 μL/min for binding. Thereafter, human CNTN4 (400 nM to 0.78 nM) prepared by sequential dilution as an antigen was allowed to flow at a rate of 30 μL/min for 3 minutes to be bound, and dissociation was performed for 5 minutes.
Then, in order to clear all analytes attached to the capture antibody, a regeneration solution (3M magnesium chloride) was allowed to flow at a rate of […] for 30 seconds, and regeneration was performed. For each concentration of antigen, binding of hAb-1, binding of antigen, dissociation, and regeneration were repeated in order.

EC50 (human CNTN4-10×His [1]): 0.17 nM
EC50 (mouse CNTN4-10×His): 0.12 nM
EC50 (human CNTN4-10×His [2]): 0.17 nM
EC50 (human CNTN4-10×His [3]): 0.24 nM
Kd [4]: 35.6 nM
B1: anti-CNTN4 IgG4-S228P monoclonal antibody hAb-1 (antibody, V domains shown)
VH: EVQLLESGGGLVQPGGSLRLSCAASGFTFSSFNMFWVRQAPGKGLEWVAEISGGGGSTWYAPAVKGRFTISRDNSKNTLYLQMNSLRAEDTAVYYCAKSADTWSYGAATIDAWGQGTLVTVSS
VL: ELTQDPAVSVALGQTVRITCSGSSGSYGWYQQKPGQAPVLVIYDNTNRPSGIPDRFSGSSSGNTASLTITGAQAEDEADYYCGGYDGSTDVFGGGTKLTVL
